Measurements: the Immune Epitope Database (IEDB)

Columns and labels:
Details in all cases: source organism: Influenza A virus
HLA-B*40:01 [1] = experiment: IEDB peptide-MHC binding, purified MHC/competitive/fluorescence; ≥ and ≤ were set here for values at or beyond the usual limits of such assays
HLA-B*44:03 [2] = experiment: as above
HLA-B*18:01 [3] = experiment: as above
HLA-B*44:02 [4] = experiment: as above
HLA-B*45:01 [5] = experiment: IEDB peptide-MHC binding, purified MHC/competitive/radioactivity; ≥ and ≤ were set here for values at or beyond the usual limits of such assays
HLA-B*40:02 [6] = experiment: as above
HLA-B*45:01 [7] = experiment: IEDB peptide-MHC binding, purified MHC/competitive/fluorescence; ≥ and ≤ were set here for values at or beyond the usual limits of such assays
HLA-B*40:02 [8] = experiment: as above
HLA-B*44:03 [9] = experiment: IEDB peptide-MHC binding, purified MHC/competitive/radioactivity; ≥ and ≤ were set here for values at or beyond the usual limits of such assays
HLA-B*44:02 [10] = experiment: as above
HLA-B*40:01 [11] = experiment: as above
HLA-A*26:01 [12] = experiment: IEDB peptide-MHC binding, purified MHC/competitive/fluorescence; ≥ and ≤ were set here for values at or beyond the usual limits of such assays
HLA-A*30:02 [13] = experiment: as above
HLA-A*29:02 [14] = experiment: IEDB peptide-MHC binding, purified MHC/competitive/radioactivity; ≥ and ≤ were set here for values at or beyond the usual limits of such assays
HLA-A*01:01 [15] = experiment: as above
HLA-A*02:02 [16] = experiment: IEDB peptide-MHC binding, purified MHC/competitive/fluorescence; ≥ and ≤ were set here for values at or beyond the usual limits of such assays
HLA-A*02:06 [17] = experiment: as above
HLA-A*02:03 [18] = experiment: IEDB peptide-MHC binding, purified MHC/competitive/radioactivity; ≥ and ≤ were set here for values at or beyond the usual limits of such assays
HLA-A*02:01 [19] = experiment: as above
HLA-B*18:01 [20] = experiment: as above
HLA-A*02:02 [21] = experiment: as above
HLA-A*68:02 [22] = experiment: as above
HLA-A*02:06 [23] = experiment: as above
HLA-A*68:02 [24] = experiment: IEDB peptide-MHC binding, purified MHC/competitive/fluorescence; ≥ and ≤ were set here for values at or beyond the usual limits of such assays
HLA-A*02:01 [25] = experiment: as above
HLA-A*03:01 [26] = experiment: IEDB peptide-MHC binding, purified MHC/competitive/radioactivity; ≥ and ≤ were set here for values at or beyond the usual limits of such assays
HLA-A*31:01 [27] = experiment: as above
HLA-A*24:02 = experiment: as above
HLA-A*23:01 = experiment: as above
HLA-A*02:03 [28] = experiment: IEDB peptide-MHC binding, purified MHC/competitive/fluorescence; ≥ and ≤ were set here for values at or beyond the usual limits of such assays
HLA-A*33:01 [29] = experiment: as above
HLA-A*11:01 [30] = experiment: as above
HLA-A*03:01 [31] = experiment: as above
HLA-A*33:01 [32] = experiment: IEDB peptide-MHC binding, purified MHC/competitive/radioactivity; ≥ and ≤ were set here for values at or beyond the usual limits of such assays
HLA-A*68:01 [33] = experiment: as above
HLA-A*11:01 [34] = experiment: as above
HLA-A*01:01 [35] = experiment: IEDB peptide-MHC binding, purified MHC/competitive/fluorescence; ≥ and ≤ were set here for values at or beyond the usual limits of such assays
HLA-A*26:01 [36] = experiment: IEDB peptide-MHC binding, purified MHC/competitive/radioactivity; ≥ and ≤ were set here for values at or beyond the usual limits of such assays
HLA-A*30:02 [37] = experiment: as above
HLA-A*68:01 [38] = experiment: IEDB peptide-MHC binding, purified MHC/competitive/fluorescence; ≥ and ≤ were set here for values at or beyond the usual limits of such assays
HLA-A*31:01 [39] = experiment: as above
HLA-A*29:02 [40] = experiment: as above

AEIMKICST
IC50 (HLA-B*40:01 [1]): 34200 nM
IC50 (HLA-B*44:03 [2]): 11700 nM
IC50 (HLA-B*18:01 [3]): 28200 nM
IC50 (HLA-B*44:02 [4]): 5120 nM
IC50 (HLA-B*45:01 [5]): 139 nM
IC50 (HLA-B*40:02 [6]): 13 nM

AEKPKFLPDLY
IC50 (HLA-B*40:01 [1]): 10900 nM
IC50 (HLA-B*18:01 [3]): 34700 nM
IC50 (HLA-B*45:01 [7]): 2930 nM
IC50 (HLA-B*40:02 [8]): 4780 nM
IC50 (HLA-B*44:03 [9]): 1440 nM
IC50 (HLA-B*44:02 [10]): 412 nM

AESRKLLLI
IC50 (HLA-B*18:01 [3]): 33100 nM
IC50 (HLA-B*40:01 [11]): 535 nM
IC50 (HLA-B*44:03 [9]): 179 nM
IC50 (HLA-B*45:01 [5]): 167 nM
IC50 (HLA-B*44:02 [10]): 55 nM
IC50 (HLA-B*40:02 [6]): 220 nM

ALASCMGLIY
IC50 (HLA-A*26:01 [12]): 2180 nM
IC50 (HLA-A*30:02 [13]): 2520 nM
IC50 (HLA-A*29:02 [14]): 12 nM
IC50 (HLA-A*01:01 [15]): 998 nM

ALQLLLEV
IC50 (HLA-A*02:02 [16]): 1440 nM
IC50 (HLA-A*02:06 [17]): 2200 nM
IC50 (HLA-A*02:03 [18]): 256 nM
IC50 (HLA-A*02:01 [19]): 662 nM

CEKLEQSGL
IC50 (HLA-B*40:01 [1]): 1490 nM
IC50 (HLA-B*44:03 [2]): 2960 nM
IC50 (HLA-B*18:01 [3]): 43100 nM
IC50 (HLA-B*45:01 [5]): 359 nM
IC50 (HLA-B*44:02 [10]): 154 nM
IC50 (HLA-B*40:02 [6]): 164 nM

CELTDSSWI
IC50 (HLA-B*18:01 [3]): 56800 nM
IC50 (HLA-B*40:02 [8]): 1410 nM
IC50 (HLA-B*40:01 [11]): 888 nM
IC50 (HLA-B*44:03 [9]): 163 nM
IC50 (HLA-B*45:01 [5]): 139 nM
IC50 (HLA-B*44:02 [10]): 35 nM

FEDLRVSSF
IC50 (HLA-B*40:01 [1]): 13000 nM
IC50 (HLA-B*44:03 [2]): 8990 nM
IC50 (HLA-B*40:02 [8]): 1320 nM
IC50 (HLA-B*18:01 [20]): 59 nM
IC50 (HLA-B*44:02 [10]): 396 nM

FESKSMKL
IC50 (HLA-B*40:01 [1]): 1230 nM
IC50 (HLA-B*44:03 [2]): 66400 nM
IC50 (HLA-B*18:01 [3]): 2500 nM
IC50 (HLA-B*45:01 [7]): 53700 nM
IC50 (HLA-B*44:02 [4]): 23600 nM
IC50 (HLA-B*40:02 [6]): 212 nM

FNMLSTVLGV
IC50 (HLA-A*02:01 [19]): 15 nM

FSMELPSFGV
IC50 (HLA-A*02:01 [19]): 9.5 nM

FVEALARSI
IC50 (HLA-A*02:02 [21]): 35 nM
IC50 (HLA-A*02:03 [18]): 457 nM
IC50 (HLA-A*68:02 [22]): 984 nM
IC50 (HLA-A*02:06 [23]): 668 nM

GLIYNRMGA
IC50 (HLA-A*02:02 [16]): 6560 nM
IC50 (HLA-A*02:06 [17]): 25600 nM
IC50 (HLA-A*02:03 [18]): 273 nM

ILGFVFTL
IC50 (HLA-A*02:02 [21]): 2.6 nM
IC50 (HLA-A*02:03 [18]): 11 nM
IC50 (HLA-A*02:06 [23]): 319 nM

ILSPLTKGIL
IC50 (HLA-A*68:02 [24]): 13300 nM
IC50 (HLA-A*02:06 [17]): 26000 nM
IC50 (HLA-A*02:01 [25]): 10500 nM
IC50 (HLA-A*02:02 [21]): 159 nM
IC50 (HLA-A*02:03 [18]): 129 nM

ITFMQALQLL
IC50 (HLA-A*02:06 [17]): 8180 nM
IC50 (HLA-A*02:02 [21]): 125 nM
IC50 (HLA-A*02:03 [18]): 856 nM
IC50 (HLA-A*68:02 [22]): 759 nM

KTRPILSPLTK
IC50 (HLA-A*03:01 [26]): 96 nM
IC50 (HLA-A*31:01 [27]): 70 nM

LLFLKVPA
IC50 (HLA-A*68:02 [24]): 23000 nM
IC50 (HLA-A*02:06 [17]): 13300 nM
IC50 (HLA-A*02:02 [21]): 133 nM
IC50 (HLA-A*02:03 [18]): 279 nM

LYRKLKREITF
IC50 (HLA-A*24:02): 206 nM
IC50 (HLA-A*23:01): 195 nM

QIAILVTTV
IC50 (HLA-A*68:02 [24]): 2220 nM
IC50 (HLA-A*02:02 [21]): 150 nM
IC50 (HLA-A*02:03 [18]): 73 nM
IC50 (HLA-A*02:06 [23]): 691 nM

QLMWALGENMA
IC50 (HLA-A*02:03 [28]): 1350 nM
IC50 (HLA-A*68:02 [24]): 2270 nM
IC50 (HLA-A*02:06 [17]): 24400 nM
IC50 (HLA-A*02:02 [21]): 357 nM

QLVWMACHSAA
IC50 (HLA-A*02:02 [16]): 2740 nM
IC50 (HLA-A*68:02 [24]): 21500 nM
IC50 (HLA-A*02:03 [18]): 354 nM

RMVLASTTAK
IC50 (HLA-A*33:01 [29]): 5880 nM

RMVLSAFDER
IC50 (HLA-A*11:01 [30]): 2240 nM
IC50 (HLA-A*03:01 [31]): 5840 nM
IC50 (HLA-A*33:01 [32]): 897 nM
IC50 (HLA-A*68:01 [33]): 631 nM
IC50 (HLA-A*31:01 [27]): 336 nM

RTMAWTVVNSI
IC50 (HLA-A*68:02 [24]): 1520 nM
IC50 (HLA-A*02:06 [17]): 4510 nM
IC50 (HLA-A*02:02 [21]): 126 nM
IC50 (HLA-A*02:03 [18]): 70 nM

SFSFGGFTFK
IC50 (HLA-A*33:01 [32]): 168 nM
IC50 (HLA-A*68:01 [33]): 427 nM
IC50 (HLA-A*11:01 [34]): 160 nM
IC50 (HLA-A*03:01 [26]): 188 nM
IC50 (HLA-A*31:01 [27]): 82 nM

SWPDGAELPF
IC50 (HLA-A*24:02): 778 nM
IC50 (HLA-A*23:01): 469 nM

TFEFTSFFY
IC50 (HLA-A*01:01 [35]): 12000 nM
IC50 (HLA-A*29:02 [14]): 0.1 nM
IC50 (HLA-A*26:01 [36]): 399 nM
IC50 (HLA-A*30:02 [37]): 422 nM

TLARSICEK
IC50 (HLA-A*68:01 [38]): 1460 nM
IC50 (HLA-A*31:01 [39]): 8120 nM
IC50 (HLA-A*11:01 [34]): 276 nM
IC50 (HLA-A*03:01 [26]): 127 nM

VSDGGPNLY
IC50 (HLA-A*29:02 [40]): 2120 nM
IC50 (HLA-A*26:01 [12]): 25700 nM
IC50 (HLA-A*30:02 [13]): 2210 nM

YERMCNILKG
IC50 (HLA-B*40:01 [1]): 2220 nM
IC50 (HLA-B*44:03 [2]): 3000 nM
IC50 (HLA-B*45:01 [7]): 19800 nM
IC50 (HLA-B*44:02 [4]): 1860 nM
IC50 (HLA-B*18:01 [20]): 711 nM
IC50 (HLA-B*40:02 [6]): 143 nM
